Results as given in article PMC5783997.

What was measured:
[1] = molecular target: PucD LH2 α-apoprotein (α-polypeptide encoded by the pucBAd gene pair) (Rhodopseudomonas palustris (endogenous in the ΔpucBAabce mutant; genome sequence of strain CGA009)); test: crystal structure; PucD LH2 in 20 mM Tris-Cl pH 8.0, 0.15% DM, 3.0% HPT, PEG 600, 50 mM CaCl2, 16 °C; data to 4.71 Å; molecular replacement with the nonameric Rps. acidophila 10050 LH2, jelly-body refinement
[2] = molecular target: PucD LH2 β-apoprotein (β-polypeptide encoded by the pucBAd gene pair) (Rhodopseudomonas palustris (endogenous in the ΔpucBAabce mutant; genome sequence of strain CGA009)); test: as above

| Substance | stoichiometry N [1] | stoichiometry N [2] |
| --- | --- | --- |
| PucD LH2 α-apoprotein (α-polypeptide encoded by the pucBAd gene pair) (natural protein) | 9 |  |
| PucD LH2 β-apoprotein (β-polypeptide encoded by the pucBAd gene pair) (natural protein) |  | 9 |
